One molecule from US20180305451A1 (COMPUGEN, published 2018) can be followed below.

Assay [1] addresses T1, human HIDE1 (human, UniProt A8MVS5 20-230).
T1 construct: Endogenous on U937, HL-60, THP-1 cells, blood monocytes, AML blasts and dendritic cells; also called C19orf38; hHIDE1
T1 sequence: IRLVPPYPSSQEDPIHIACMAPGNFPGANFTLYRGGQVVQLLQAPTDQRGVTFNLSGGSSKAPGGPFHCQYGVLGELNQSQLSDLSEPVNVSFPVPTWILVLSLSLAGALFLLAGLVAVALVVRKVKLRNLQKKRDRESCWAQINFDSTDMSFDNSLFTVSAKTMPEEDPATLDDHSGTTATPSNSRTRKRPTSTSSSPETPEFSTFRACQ
The assay can be described thus: FACS, THP1 cells. On the technique in general: Flow cytometry measures light scatter and fluorescence of single cells or particles in a stream.

In assay [2] the target is T1, human HIDE1. The assay can be described thus: FACS, U937 cells.
The target in assay [3] is T1, human HIDE1. The assay can be described thus: FACS, HL-60 cells.
Assay [4] concerns the target T1, human HIDE1. Nature of the assay: FACS, U937 cells transfected with HIDE1 siRNA.
Assay [5] has as its target T1, human HIDE1. Nature of the assay: FACS, HL-60 cells transfected with HIDE1 siRNA.
The target of assay [6] is T1, human HIDE1. Nature of the assay: FACS, U937 cells transfected with scrambled siRNA.
Assay [7] deals with T1, human HIDE1. Nature of the assay: FACS, HL-60 cells transfected with scrambled siRNA.
Assay [8] has as its target T1, human HIDE1. The assay can be described thus: FACS, CD14+ cells of human PBMCs, Alexa 647 conjugate. On the procedure: The following antibodies were used. […] Brilliant violet 510 labeled anti-CD3 (Biolegend, cat. 344828), PE-labeled anti-CD14 (Biolegend, cat. 301806) and PercP-labeled anti-CD19 (Biolegend, cat. 302228).
PBMCs cells were thawed and stained with viability dye (BD Horizon; Cat#562247, BD biosciences), washed and pre-blocked with Fc blocking solution (cat#422302, Biolegend; 1:20) and/or human Ig Fc (Jackson; 200 μg/ml; cat#009-000-008) to avoid nonspecific binding via Fc receptors. Cells were then stained with anti-hHIDE1 mAbs or mIgG1 isotype control in the presence or absence of lymphocytes or monocytes surface marker. All samples were run on a MACSQuant analyzer (Miltenyi) and data was analyzed using Tree Star FlowJo software. Cells were first gated for lymphocytes or monocyte (FSC-A vs. SSC-A), and further gated for live cells before analyzed for HIDE1 expression by flow cytometry.

Assay [9] concerns the target T1, human HIDE1. Nature of the assay: FACS, THP1 cells transfected with HIDE1 siRNA, AF647 conjugate. As to the method: Confirmation of HIDE1 endogenous expression was also tested in THP1 cells transfected with HIDE1 siRNA as described in M&M section. Analysis of human HIDE1 membrane expression in the siRNA transfected cells was performed by FACS. As shown in FIG. 31 membrane expressions of human HIDE1 protein is reduced in cells transfected with HIDE1 siRNA (green) as compared to cells transfected with scrambled siRNA (orange).

Assay [10] addresses T2, mouse HIDE1 Flag (mouse, UniProt Q75VT8 22-222).
T2 construct: Over-expressed on HEK293 and EL4 cells (pMSCV); whole cell extracts in WB; also called mHIDE1 flag; not shown: Flag tag
T2 sequence: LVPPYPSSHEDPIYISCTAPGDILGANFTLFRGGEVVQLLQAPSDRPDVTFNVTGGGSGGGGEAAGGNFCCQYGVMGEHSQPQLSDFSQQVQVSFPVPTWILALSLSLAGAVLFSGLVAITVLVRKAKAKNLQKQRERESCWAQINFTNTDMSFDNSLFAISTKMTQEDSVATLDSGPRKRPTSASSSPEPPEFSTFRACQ
The assay can be described thus: Western blot of whole cell extracts, goat anti-mouse HRP.

B1: Mouse anti human HIDE1 mAb (Biotem #33B4-2F7) (antibody, mouse IgG1, kappa, V domains shown)
VH: QIQLVQSGPELKKPGETVKISCKASGYTFTNYGMNWVKQAPGKGLKWMGWINTYTGEPTYADDFKGRFAFSLETPASTAYLQINNLKNEDMATYFCVREHFYALDYWGQGTSVTVSS
VL: KIVLTQSPASLAVSLRQRATISCRASESVDSYGNSFMHWYQQKPGQPPKLLIYRASNLESGVPARFSGSGSRTDFTLTIDPVEADDAATYYCQQSNEDPRTFGGGTKLEIKR
notes: Mouse IgG1; also called Ab-364
As to B1, the “FACS (fold change from isotype)” value worked out at 3 fold in [1], 14 fold in assay [2] and 4 fold in [3]. For the same molecule, the “fold change (anti HIDE1 vs. isotype control)” value in assay [4] worked out at 7 fold; in [5], 3 fold; in assay [6], 17.7 fold; in assay [7] it was 5.2 fold; in [9] it was 1.9 fold. In addition, in assay [8], the “staining, folds over isotype control” value is around 3 fold. Moreover, the binding result in assay [10] is recorded as “no binding (tested: 2 µg/ml)”.
